The target of experiment [1] is T1, prostate specific membrane antigen (PSMA) on LNCaP cells (human, UniProt Q04609 1-750).
T1 construct: whole, on cells; Used for intact LNCaP cells, LNCaP membrane preparations and LNCaP tumour or prostate tissue sections; also called human PSMA; LNCap membrane preparation
Description: not described.

In experiment [2] the target is T1, prostate specific membrane antigen …. The experiment is described as follows: ELISA on plates coated with LNCaP membrane preparation. (In general: ELISA stands for enzyme-linked immunosorbent assay.)
For experiment [3] the target is unchanged. Description: ELISA on LNCaP membrane preparation, purified antibody, reference J415 chimeric antibody.

T1 sequence (Q04609 whole entry): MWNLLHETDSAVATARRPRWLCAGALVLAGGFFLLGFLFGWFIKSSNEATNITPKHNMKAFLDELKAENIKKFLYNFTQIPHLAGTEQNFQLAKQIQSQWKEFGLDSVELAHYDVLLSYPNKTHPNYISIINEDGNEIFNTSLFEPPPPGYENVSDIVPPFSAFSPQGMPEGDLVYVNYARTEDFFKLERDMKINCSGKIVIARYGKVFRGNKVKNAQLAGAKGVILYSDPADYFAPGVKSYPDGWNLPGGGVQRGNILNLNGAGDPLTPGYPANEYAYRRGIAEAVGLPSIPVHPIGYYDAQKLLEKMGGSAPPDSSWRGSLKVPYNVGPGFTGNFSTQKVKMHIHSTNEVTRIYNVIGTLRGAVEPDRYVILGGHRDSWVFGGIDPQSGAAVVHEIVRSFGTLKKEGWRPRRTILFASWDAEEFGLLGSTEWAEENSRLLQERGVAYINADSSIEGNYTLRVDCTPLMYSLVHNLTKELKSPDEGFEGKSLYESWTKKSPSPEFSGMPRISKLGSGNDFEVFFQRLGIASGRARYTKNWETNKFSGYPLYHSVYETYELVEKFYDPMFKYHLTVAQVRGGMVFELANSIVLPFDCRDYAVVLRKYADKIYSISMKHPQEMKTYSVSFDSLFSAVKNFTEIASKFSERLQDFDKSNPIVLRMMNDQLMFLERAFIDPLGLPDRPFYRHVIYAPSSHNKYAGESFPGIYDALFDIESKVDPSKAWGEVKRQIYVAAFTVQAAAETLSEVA

B1: murine J533 monoclonal antibody (antibody, mouse IgG1, V domains shown)
VH: EVQLQQSGPELVKPGASVKMSCKASGYTFTGYVMHWVKQKPGQVLEWIGYINPYNDVTRYNGKFKGKATLTSDKYSSTAYMELSGLTSEDSAVYYCARGENWYYFDSWGRGATLTVSS
VL: DIVLTQSPASLAVSLGQRATISCRASESIDSYDNTFMHWYQQKPGQPPNLLIFRASILESGIPARFSGSGSGTDFTLTIYPVEADDVATYYCHQSIEDPYTFGGGTKLEIK
notes: Mouse IgG1 kappa, hybridoma ATCC HB-12127
As to B1, the binding result in experiment [1] is recorded as “binds”.

B2: deimmunized J415 antibody, heavy chain version 4 with light chain version 5 (antibody, human IgG1, V domains shown)
VH: EVKLEESGGGLVQPGGSMKISCVASGFTFSNYWMNWVRQSPEKGLEWVAEIRSQSNNFATHYAESVKGRVIISRDDSKSSVYLQMNSLRAEDTAVYYCTRRWNNFWGQGTTVTVSS
VL: NIVMTQFPKSMSASAGERMTLTCKASENVGTYVSWYQQKPTQSPKMLIYGASNRFTGVPDRFSGSGSGTDFILTISSVQAEDLVDYYCGQSYTFPYTFGGGTKLEMK
notes: also called DIVH4/DIVK5; J415DIVH4/J415DIVK5
With B2, the binding result in experiment [2] is on record as “binds”.

B3: deimmunized J415 antibody, heavy chain version 1 with light chain version 5 (antibody, human IgG1, V domains shown)
VH: EVKLEESGGGLVQPGGSMKISCKASGFTFSNYWMNWVRQTPEKGLEWVALIRSQSNNFATHYAESVKGRVIISRDDSKSSVYLQMNSLRAEDTAVYYCTRRWNNFWGQGTTVTVSS
VL: NIVMTQFPKSMSASAGERMTLTCKASENVGTYVSWYQQKPTQSPKMLIYGASNRFTGVPDRFSGSGSGTDFILTISSVQAEDLVDYYCGQSYTFPYTFGGGTKLEMK
notes: also called DIVH1/DIVK5; J415DIVH1 with DIVK5
Regarding B3, in experiment [3], the “fold less binding than the chimeric antibody” value worked out at 2 fold.

B4: murine J415 monoclonal antibody (antibody, mouse IgG1, V domains shown)
VH: EVKLEESGGGLVQPGGSMKLSCVASGFTFSNYWMNWVRQSPEKGLEWVAEIRSQSNNFATHYAESVKGRVIISRDDSKSSVYLQMNNLRAEDTGIYYCTRRWNNFWGQGTTLTVSS
VL: NIVMTQFPKSMSISVGERVTLTCKASENVGTYVSWYQQKPEQSPKMLIYGASNRFTGVPDRFTGSGSATDFILTISSVQTEDLVDYYCGQSYTFPYTFGGGTKLEMK
notes: Mouse IgG1 kappa, hybridoma ATCC HB-12109
For B4, in experiment [1], the binding result was “binds”.

B5: J415 chimeric antibody (antibody, V domains shown)
VH: EVKLEESGGGLVQPGGSMKLSCVASGFTFSNYWMNWVRQSPEKGLEWVAEIRSQSNNFATHYAESVKGRVIISRDDSKSSVYLQMNNLRAEDTGIYYCTRRWNNFWGQGTTLTVSS
VL: NIVMTQFPKSMSISVGERVTLTCKASENVGTYVSWYQQKPEQSPKMLIYGASNRFTGVPDRFTGSGSATDFILTISSVQTEDLVDYYCGQSYTFPYTFGGGTKLEMK
notes: also called the chimeric
As for B5, in experiment [2], the binding result is listed as “binds”.

B6: deimmunized J415 antibody, heavy chain version 2 with light chain version 5 (antibody, human IgG1, V domains shown)
VH: EVKLEESGGGLVQPGGSMKISCVASGFTFSNYWMNWVRQTPEKGLEWVALIRSQSNNFATHYAESVKGRVIISRDDSKSSVYLQMNSLRAEDTAVYYCTRRWNNFWGQGTTVTVSS
VL: NIVMTQFPKSMSASAGERMTLTCKASENVGTYVSWYQQKPTQSPKMLIYGASNRFTGVPDRFSGSGSGTDFILTISSVQAEDLVDYYCGQSYTFPYTFGGGTKLEMK
notes: also called DIVH2/DIVK5; J415DIVH2 with DIVK5
In the case of B6, the “fold less binding than the chimeric antibody” value in experiment [3] is 2 fold.

B7: murine E99 monoclonal antibody (antibody, mouse IgG3, V domains shown)
VH: QVQLKESGPGLVASSQSLSITCTVSGFSLTAYGINWVRQPPGKGLEWLGVIWPDGNTDYNSTLKSRLNIFKDNSKNQVFLKMSSFQTDDTARYFCARDSYGNFKRGWFDFWGQGTTLTVSS
VL: NIVMTQSQKFMSTSPGDRVRVTCKASQNVGSDVAWYQAKPGQSPRILIYSTSYRYSGVPDRFTAYGSGTDFTLTITNVQSEDLTEYFCQQYNSYPLTFGAGTKLELK
On to B7, for which, in experiment [1], the binding result is listed as “binds”.

The record behind these values is patent US20060062793A1 (published 2006).
